Biological target: T1, TGFβ-1 (UniProt P01137 279-390)
T1 construct: Antigen coated on ELISA plates at 1 µg/ml
Assay: method not stated; value listed for the panel of existing phage-display scFv

T1 sequence (P01137 279-390 limits assumed): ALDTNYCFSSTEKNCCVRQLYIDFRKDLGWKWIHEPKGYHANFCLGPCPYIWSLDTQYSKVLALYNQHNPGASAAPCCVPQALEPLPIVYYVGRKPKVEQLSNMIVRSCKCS

B1: ScFv 1 (scFv, V domains shown)
VH: EVQLVESGGGLVQPGGSLRLSCAASGYAFTNYLIEWVRQAPGKGLEWVGVINPGSGGSNYNEKFKGRATISADNSKNTLYLQMNSLRAEDTAVYYCARSGGFYFDYWGQGTLVTVSS
VL: DIQMTQSPSSLSASVGDRVTITCRASQSVLYSSNQKNYLAWYQQKPGKAPKLLIYWASTRESGVPSRFSGSGSGTDFTLTISSLQPEDFATYYCHQYLSSDTFGQGTKVEIK
- Kd: 8 nM

From patent publication US20060177862A1 (CAMBRIDGE ANTIBODY TECHNOLOGY, published 2006)
